# Reference: article PMC7556403
# Tests used:
# [1] = target: MBP–APO1 mXT-173Q (human) (UniProt P41238); experiment: SEC-MALS; MBP–APO1 fusions with Leu, Gln or Ala at position 173; SEC and MALS
# [2] = target: MBP–APO1 mXT-173L (human) (UniProt P41238); experiment: as above
# MBP–APO1 mXT (human) [3] = target: MBP–APO1 mXT (human) (UniProt P41238); experiment: as above
# MBP–APO1 mXT (human) [4] = target: MBP–APO1 mXT (human) (UniProt P41238); experiment: SEC; MBP–APO1 fusion proteins; SEC in 20 mM HEPES pH 7.5, 500 mM NaCl, 0.5 mM TCEP
# MBP–APO1 mSOL (human) = MBP–APO1 mSOL (human) (UniProt P41238); experiment: as above
substance,measurement,setting,value
MBP–APO1 mXT-173Q (from UniProt P41238 15-236) (enzyme),percent in the dimer peak,[1],1 to 2%
MBP–APO1 mXT-173L (from UniProt P41238 15-236) (enzyme),stoichiometry N,[2],2
MBP–APO1 mXT (from UniProt P41238 15-236) (enzyme),stoichiometry N,MBP–APO1 mXT (human) [3],2
same,stoichiometry N,MBP–APO1 mXT (human) [4],2
MBP–APO1 mSOL (from UniProt P41238 1-236) (enzyme),stoichiometry N,MBP–APO1 mSOL (human),2
